Experimental data reported in paper PMC6359636, “Advances in Drug Delivery and Biomaterials: Facts and Vision” (Pharmaceutics, 2019).

Test system: blood clots
Assay: Blood clot resolution in murine mesentery venules
Assay type: in vivo
Text: Here, a novel thrombolytic nanoagent is realized by conjugating directly the clinical formulation of tPA to the porous structure of soft discoidal polymeric nanoconstructs (tPA-DPNs).

B1: Tissue plasminogen activator (protein, UniProt P00750 36-562, looked up)
Tissue-type plasminogen …: SYQVICRDEKTQMIYQQHQSWLRPVLRSNRVEYCWCNSGRAQCHSVPVKSCSEPRCFNGGTCQQALYFSDFVCQCPEGFAGKCCEIDTRATCYEDQGISYRGTWSTAESGAECTNWNSSALAQKPYSGRRPDAIRLGLGNHNYCRNPDRDSKPWCYVFKAGKYSSEFCSTPACSEGNSDCYFGNGSAYRGTHSLTESGASCLPWNSMILIGKVYTAQNPSAQALGLGKHNYCRNPDGDAKPWCHVLKNRRLTWEYCDVPSCSTCGLRQYSQPQFRIKGGLFADIASHPWQAAIFAKHRRSPGERFLCGGILISSCWILSAAHCFQERFPPHHLTVILGRTYRVVPGEEEQKFEVEKYIVHKEFDDDTYDNDIALLQLKSDSSRCAQESSVVRTVCLPPADLQLPDWTECELSGYGKHEALSPFYSERLKEAHVRLYPSSRCTSQHLLNRTVTDNMLCAGDTRSGGPQANLHDACQGDSGGPLVCLNDGRMTLVGIISWGLGCGQKDVPGVYTKVTNYLDWIRDNMRP
clots dissolved / vessels (1.0 mg/kg, about 1 tenth of the clinical dose): 16%
blood clots resolved / vessels recanalized (intravenous, 2.5 mg/kg): about 40%
